Target: AF-tubulin (porcine) (UniProt P02550)
Sequence of UniProt P02550 (P02550 whole entry, chain 1 of 2): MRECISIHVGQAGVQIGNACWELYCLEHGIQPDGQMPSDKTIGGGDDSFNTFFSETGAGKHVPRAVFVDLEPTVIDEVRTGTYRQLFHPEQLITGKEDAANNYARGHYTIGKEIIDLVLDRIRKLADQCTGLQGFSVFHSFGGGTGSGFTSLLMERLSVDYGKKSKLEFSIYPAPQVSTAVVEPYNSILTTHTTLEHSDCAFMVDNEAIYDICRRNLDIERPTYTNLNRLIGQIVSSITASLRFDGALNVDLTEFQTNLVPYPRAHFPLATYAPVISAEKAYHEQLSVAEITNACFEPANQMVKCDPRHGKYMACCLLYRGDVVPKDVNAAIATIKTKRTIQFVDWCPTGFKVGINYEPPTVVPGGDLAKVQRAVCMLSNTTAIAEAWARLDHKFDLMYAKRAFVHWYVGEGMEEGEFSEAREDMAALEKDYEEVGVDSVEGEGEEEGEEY
Sequence of UniProt P02550 (Q767L7 whole entry, chain 2 of 2, further chain): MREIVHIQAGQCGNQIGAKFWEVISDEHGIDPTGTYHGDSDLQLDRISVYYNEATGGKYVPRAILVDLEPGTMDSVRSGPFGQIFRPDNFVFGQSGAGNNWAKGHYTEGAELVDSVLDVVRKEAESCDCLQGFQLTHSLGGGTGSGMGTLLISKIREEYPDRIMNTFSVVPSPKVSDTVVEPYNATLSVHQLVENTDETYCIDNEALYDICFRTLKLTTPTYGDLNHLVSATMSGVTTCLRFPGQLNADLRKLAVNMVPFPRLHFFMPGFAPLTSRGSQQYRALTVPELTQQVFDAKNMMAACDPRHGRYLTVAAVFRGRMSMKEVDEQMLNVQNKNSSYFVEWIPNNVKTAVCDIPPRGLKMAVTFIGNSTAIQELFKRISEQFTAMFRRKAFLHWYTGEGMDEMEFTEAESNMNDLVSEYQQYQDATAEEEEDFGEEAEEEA

| Binder | Pearson's correlation coefficient (PCC) of co-localisation of TMR-microtubule and AF-tubulin fluorescence in CLSM images, 100 uM peptide, doublet method (no peptide: 0.07) |
| --- | --- |
| KAKAKAKAKAKAKAGGGSGGGKKHVPGGGSVQIVYKPVDL [KA7–GGGS–TP] | 0.61 |
| KAKAKAKAKAKAKAGGGSGGGSGGGSGGGKKHVPGGGSVQIVYKPVDL [KA7–(GGGS)3–TP] | 0.7 |
| KAKAKAKAKAKAKAEAAAKEAAAKGGGKKHVPGGGSVQIVYKPVDL [KA7–(EAAAK)2–TP] | 0.72 |

Source: PMC11951922
